Source: US20170002079A1 (Amgen, published 2017)
Residue numbers refer to the chain shown, from its start.

B1: Ab8 (antibody, human IgG2, kappa, V domains shown)
VH: EVQLVESGGGLVQPGGSLRLSCAASGFTFSSYDMYWVRQATGKGLEWVSAIDTVGDTYYPGSVKGRFTISRENAKNSLYLQMNSLRVGDTAVYYCARGGDYDYSYYGMDVWGQGTTVTVSS
VL: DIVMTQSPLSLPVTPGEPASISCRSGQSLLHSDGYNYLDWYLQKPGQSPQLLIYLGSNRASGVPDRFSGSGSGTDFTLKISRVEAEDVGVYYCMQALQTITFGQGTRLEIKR
B2: Ab2 (antibody, human IgG2, kappa, V domains shown)
VH: EVQLVQSGAEVKKPGESLKISCKGSGYSFTNYWIGWVRQMPGKGLEWMGIIYPGNSDTRFSPSFQGQVTISADKSITTAYLQWSSLKASDTAMYYCARHGTSSDYYGLDVWGQGTTVTVSS
VL: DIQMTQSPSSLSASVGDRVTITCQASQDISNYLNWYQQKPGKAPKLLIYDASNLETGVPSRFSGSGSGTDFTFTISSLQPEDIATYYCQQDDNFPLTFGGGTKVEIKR
notes: Fully human anti-ST2 antibody (XenoMouse); Full chains are the exemplary Ab2 chains
B3: Ab4 (antibody, human IgG2, kappa, V domains shown)
VH: QVQLVQSGAEVKKPGASVKVSCEVSGFILTELSVNWVRQAPGKGLEWMGGFDPEDGKTIYAQKFQGRVTLTEDTSTDTAYMELSSLRSEDTAVYYCATWWDFHFDFWGQGTLVTVSS
VL: DFVMTQTPLSLSVTPGQPASISCKSSQSLLHSNGKTYLYWFLQKPGQPPQLLIYEVSNRFSGVPDRFSGSGSGTDFTLKISRVEAEDVGVYYCMQSIQLPLTFGGGTKVEIKR
notes: Fully human anti-ST2 antibody
B4: Ab1 (antibody, human IgG2, kappa, V domains shown)
VH: QVQLVQSGAEVKKPGASVKVSCKVSGYTLTELSIHWVRQAPGKGLEWMGGFGPEDGETIYAQKFQGRVTMTEDTSTDTAYMELSSLRSEDTAVYYCTTEDSSGLFDYWGQGTLVTVSS
VL: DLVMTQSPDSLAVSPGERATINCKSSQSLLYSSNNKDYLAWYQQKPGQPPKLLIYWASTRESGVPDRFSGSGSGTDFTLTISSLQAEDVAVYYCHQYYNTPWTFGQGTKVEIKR
notes: Fully human anti-ST2 antibody (XenoMouse); Full chains are the exemplary Ab1 chains
B5: Ab3 (antibody, human IgG2, kappa, V domains shown)
VH: EVQLVESGGGLVQPGGSLRLSCAASGFTFSTYDMHWIRQAPGKNLEWVSAIDLAGDTYYPGSVKGRFTISREDAKNSLYLQMNSLRAGDTAVYYCARGGDGYNYDYYGIDVWGQGTTVTVSS
VL: DIVMTQSPLSLPVTPGEPASISCRSSQSLLHSDGYHYLDWYLQKPGQSPQLLIYLGSNRASGVPDRFTGSGSGTDFTLKISRVEAEDVGVYYCMQALQILTFGGGTKVEIKR
notes: Fully human anti-ST2 antibody
B6: Ab6 (antibody, human IgG2, kappa, V domains shown)
VH: B5 VH with I37V, A40T, P41T, N44G
VL: B5 VL with T68S, K79N, I99T
B7: Ab7 (antibody, human IgG2, kappa, V domains shown)
VH: B5 VH with I37V, A40T, P41T, N44G
VL: B5 VL with T68S, K79N, I99T
B8: Ab5 (antibody, human IgG2, kappa, V domains shown)
VH: EVQLVESGGGWVQPGGSLRLSCAASGFTFSSYDMYWVRQATGKGLEWVSGIDTVGDTYYPDSVKGRFTISRENAKNSVYLQMNTLRAGDTAVYYCVRGIYGDFYYYGLDVWGHGTTVTVSS
VL: B5 VL with H31Y, Y35N, H36N, Q50H, T68S, E86D, I99T

target: T1, human ST2 on primary human cells (human, UniProt Q01638 19-556); test: cell-based or functional assay
T1 sequence: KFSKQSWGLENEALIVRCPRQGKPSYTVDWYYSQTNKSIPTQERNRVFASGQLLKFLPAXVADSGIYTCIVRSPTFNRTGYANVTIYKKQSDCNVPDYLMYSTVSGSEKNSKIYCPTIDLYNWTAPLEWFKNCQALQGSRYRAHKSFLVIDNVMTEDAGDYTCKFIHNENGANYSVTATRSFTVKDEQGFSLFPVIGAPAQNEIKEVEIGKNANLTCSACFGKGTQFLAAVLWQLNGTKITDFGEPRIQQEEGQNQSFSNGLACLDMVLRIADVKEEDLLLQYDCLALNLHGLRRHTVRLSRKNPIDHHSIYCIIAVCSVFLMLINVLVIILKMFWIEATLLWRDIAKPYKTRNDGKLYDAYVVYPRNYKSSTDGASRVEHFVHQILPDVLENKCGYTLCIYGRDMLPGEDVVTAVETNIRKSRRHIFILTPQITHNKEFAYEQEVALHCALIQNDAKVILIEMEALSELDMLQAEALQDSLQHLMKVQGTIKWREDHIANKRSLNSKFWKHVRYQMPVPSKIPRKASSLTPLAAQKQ

With B1 the “IC50 (nM), inhibition of human IL-33-induced IL-5 production from human CD4+ T cells” value was 6.9 nM.

target: ST2 (Example 4, pH-sensitive binding); test: SPR Biacore 4000; association at pH 7.4, dissociation at pH 7.4; estimated kd
Description: (§1) The association (5 min) rates at pH 7.4 and dissociation (10 min) rates at pH 5.5 and 7.4 were monitored at a flow rate of 30 uL/min. The reference subtracted data was fit to a 1:1 model in Scrubber.

Going from B2 to B3, the koff rises from 2.98e-05 s⁻¹ to 0.000632 s⁻¹ (21-fold).

Compared with B4, B5 is 4.9-fold lower in koff: 0.000134 s⁻¹ for the first, 2.73e-05 s⁻¹ for the second.

target: ST2 (Example 4, pH-sensitive binding); test: SPR Biacore 4000; kd at pH 5.5 against kd at pH 7.4
Description: as §1

Going from B2 to B3, the “pH 7.4/pH 5.5 kd fold change” value rises from 8 fold to 16.9 fold.

Going from B4 to B5, the “pH 7.4/pH 5.5 kd fold change” value falls from 88.1 fold to 2.9 fold.

target: ST2 (Example 4, pH-sensitive binding); test: SPR Biacore 4000; association at pH 7.4, dissociation at pH 5.5; estimated kd
Description: as §1

Compared with B2, B3 is 45-fold higher in koff: 0.000238 s⁻¹ for the first, 0.0107 s⁻¹ for the second.

Going from B4 to B5, the koff falls from 0.0118 s⁻¹ to 7.91e-05 s⁻¹ (150-fold).

target: T1, human ST2 on primary human cells; test: cell-based or functional assay; remark: another data set of the same source

Going from B2 to B3, the “IC50 (read off the curve); % inhibition of IL-5 production by human CD4+ T cells stimulated with human IL-33 + IL-2” value (“IC50 (read off the curve); % inhibition” below) rises from ~0.03 µg/mL to ~0.08 µg/mL (2.7-fold).

Going from B1 to B6, the “IC50 (read off the curve); % inhibition” value falls from ~0.9 µg/mL to ~0.09 µg/mL (10-fold).

Going from B7 to B8, the “IC50 (read off the curve); % inhibition” value rises from ~0.02 µg/mL to ~0.09 µg/mL (4.5-fold).

B5 was tested, and the “IC50 (read off the curve); % inhibition” value was ~0.3 µg/mL.

target: T1, human ST2 on primary human cells; test: cell-based or functional assay; remark: another data set of the same source

For B1, the “IC-50, human eosinophil IL-8 release assay (IL-33 and IL-3 stimulation)” value was 3120 pM.

Target: T2, cynomolgus monkey ST2 on cynomolgus monkey CD4+ T cells (cynomolgus monkey, UniProt Q01638 19-556 (human entry))
T2 chain: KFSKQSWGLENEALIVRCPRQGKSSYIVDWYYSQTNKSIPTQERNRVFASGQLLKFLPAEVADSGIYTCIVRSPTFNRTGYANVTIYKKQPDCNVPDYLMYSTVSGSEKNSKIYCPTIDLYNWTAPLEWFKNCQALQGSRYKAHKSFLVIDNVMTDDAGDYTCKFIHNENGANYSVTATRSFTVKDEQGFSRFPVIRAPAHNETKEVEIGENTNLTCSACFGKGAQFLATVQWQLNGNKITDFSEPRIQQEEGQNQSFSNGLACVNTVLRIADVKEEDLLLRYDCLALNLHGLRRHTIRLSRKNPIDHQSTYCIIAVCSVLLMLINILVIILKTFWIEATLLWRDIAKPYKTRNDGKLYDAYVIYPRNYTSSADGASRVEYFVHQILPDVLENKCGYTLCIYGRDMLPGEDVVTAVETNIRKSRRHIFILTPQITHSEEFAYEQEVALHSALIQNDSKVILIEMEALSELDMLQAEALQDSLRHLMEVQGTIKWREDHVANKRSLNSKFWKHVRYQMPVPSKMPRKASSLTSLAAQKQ
Test: cell-based or functional assay

B1 was tested, and the “IC-50, cynomolgus monkey CD4+ T cell IFNγ release assay (IL-33, IL-2 and IL-12p70 stimulation)” value was 158 pM.
